Results published in PMC4818545.
Read-outs that look alike come from different tables or passages of the source.

What was measured:
[1] = target: recombinant (β15–66)2 fragment; assay: ELISA
[2] = target: recombinant (β15–66)2 fragment; assay: ELISA; remark: listed apart in the source
[3] = target: recombinant (β15–66)2 fragment; assay: ELISA; remark: listed apart in the source
[4] = target: VLDLR(1–4)HT (human) (UniProt P98155); assay: SPR
[5] = target: VLDLR(2–3)HT (human) (UniProt P98155); assay: SPR
[6] = target: VLDLR(2–4)HT (human) (UniProt P98155); assay: SPR
[7] = target: VLDLR(1–8)HT (human) (UniProt P98155); assay: SPR
[8] = target: fibrin (β15-66)2 fragment 15-66 (Homo sapiens) (UniProt P02675); assay: ELISA; conditions: cited from earlier work
Chain of UniProt P02675 (P02675 15-66): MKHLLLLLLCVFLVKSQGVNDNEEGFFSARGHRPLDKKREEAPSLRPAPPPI

Row | Substance | Kd [1] | Kd [3] | also measured
1 | VLDLR(1–8)HT (from UniProt P98155 28-355) (domain or fragment) | 16.3 nM | 3.4 nM | Kd [2]: 21 nM
2 | VLDLR(2–3)HT (from UniProt P98155 69-151) (domain or fragment) | 78 nM |  | 
3 | recombinant (β15–66)2 fragment (domain or fragment) |  |  | Kd [4]: 3.7 nM; Kd [5]: 9.5 nM; Kd [6]: 4.6 nM; Kd [7]: 3.1 nM
4 | sVLDLR ECD (from UniProt P98155) |  |  | Kd [8]: 5.7 nM

Continued, in another order:

Row | Kd [1] | Kd [3] | Substance | also measured
5 | 60 nM |  | VLDLR(1–4)HT (from UniProt P98155 28-190) (domain or fragment) | 
6 | 16.4 nM | 2.5 nM | soluble form of human VLDL receptor, sVLDLRHT (from UniProt P98155 28-797) | 
